Reference: the supplement of paper PMC10065799, “High-throughput profiling of sequence recognition by tyrosine kinases and SH2 domains using bacterial peptide display” (eLife, 2023)

Columns and labels:
c-Src SH2 = assay: SH2 binding enrichment of the phosphorylated peptide, bacterial display (enrichment ratio); higher = better substrate or ligand; peptides without Tyr show the background
SHP2-C SH2 = assay: as above
Grb2 SH2 = Grb2 SH2 (UniProt P62993); assay: as above
c-Src = assay: phosphorylation enrichment, bacterial display (enrichment ratio); higher = better substrate or ligand; peptides without Tyr show the background
AncSZ = assay: as above
Fyn = Fyn (UniProt P06241); assay: as above
FGFR3 = FGFR3 (UniProt P22607); assay: as above
Jak2 = Jak2 (UniProt O60674); assay: as above
c-Abl (mouse) = assay: as above
EPHB1 = EPHB1 (UniProt P54762); assay: as above
Fes = Fes (UniProt P07332); assay: as above
FGFR1 = FGFR1 (UniProt P11362); assay: as above
MERTK = MERTK (UniProt Q12866); assay: as above
Fer (mouse) = assay: as above
EPHB2 = EPHB2 (UniProt P29323); assay: as above
Hck = Hck (UniProt P08631); assay: as above
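Throughout, for SH2 binding enrichment of the phosphorylated peptide, bacterial display: peptide library displayed on the E. coli surface as eCPX fusions, selected cells deep-sequenced, score is each peptide's frequency after selection divided by its frequency in the input.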
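Throughout, for phosphorylation enrichment, bacterial display: 11-residue human phosphosite peptides and single-mutation variants displayed on the E. coli surface, counted by deep sequencing, each peptide's frequency after selection divided by its frequency in the unselected input library; frequency after pTyr selection over input frequency; kinase dosed for 20-30% of maximal phosphorylation in three min.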

Hck, sequence (P08631 whole entry, looked up, the tested form may be a part): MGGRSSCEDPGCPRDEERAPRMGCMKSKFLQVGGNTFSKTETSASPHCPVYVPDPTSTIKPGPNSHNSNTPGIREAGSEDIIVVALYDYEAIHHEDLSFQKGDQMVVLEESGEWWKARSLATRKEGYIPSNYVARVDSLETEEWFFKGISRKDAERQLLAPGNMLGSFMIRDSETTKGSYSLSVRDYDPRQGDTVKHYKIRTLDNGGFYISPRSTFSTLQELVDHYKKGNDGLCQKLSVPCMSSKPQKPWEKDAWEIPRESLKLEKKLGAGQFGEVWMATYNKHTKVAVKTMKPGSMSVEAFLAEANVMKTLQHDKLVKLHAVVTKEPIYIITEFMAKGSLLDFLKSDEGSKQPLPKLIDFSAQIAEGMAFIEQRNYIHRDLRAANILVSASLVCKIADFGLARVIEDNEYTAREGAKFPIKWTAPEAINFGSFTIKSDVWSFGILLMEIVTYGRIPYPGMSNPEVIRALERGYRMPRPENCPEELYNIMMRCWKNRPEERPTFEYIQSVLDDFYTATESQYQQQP
Fes, sequence (P07332 whole entry, looked up): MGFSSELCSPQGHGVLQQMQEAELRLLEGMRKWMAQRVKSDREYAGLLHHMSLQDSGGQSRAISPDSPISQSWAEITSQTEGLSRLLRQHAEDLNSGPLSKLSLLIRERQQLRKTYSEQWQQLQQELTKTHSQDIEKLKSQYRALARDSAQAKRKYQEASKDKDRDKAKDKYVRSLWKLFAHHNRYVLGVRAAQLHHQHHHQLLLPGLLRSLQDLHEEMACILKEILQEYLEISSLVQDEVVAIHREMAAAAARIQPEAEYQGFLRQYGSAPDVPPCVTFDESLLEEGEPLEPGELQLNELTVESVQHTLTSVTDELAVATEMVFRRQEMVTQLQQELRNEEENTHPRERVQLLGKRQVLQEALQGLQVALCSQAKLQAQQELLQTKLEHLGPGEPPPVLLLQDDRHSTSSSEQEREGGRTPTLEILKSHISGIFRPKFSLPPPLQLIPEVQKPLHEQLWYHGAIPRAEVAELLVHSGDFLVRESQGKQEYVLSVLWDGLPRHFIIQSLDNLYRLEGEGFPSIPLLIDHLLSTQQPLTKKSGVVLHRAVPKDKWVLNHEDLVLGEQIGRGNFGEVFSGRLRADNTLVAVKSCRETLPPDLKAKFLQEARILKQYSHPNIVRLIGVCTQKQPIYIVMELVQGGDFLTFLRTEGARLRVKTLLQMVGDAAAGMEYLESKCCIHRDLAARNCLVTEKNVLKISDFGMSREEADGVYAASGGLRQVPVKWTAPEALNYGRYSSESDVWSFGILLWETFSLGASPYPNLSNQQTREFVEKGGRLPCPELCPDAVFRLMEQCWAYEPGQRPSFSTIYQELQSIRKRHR
FGFR3, sequence (P22607 whole entry, looked up): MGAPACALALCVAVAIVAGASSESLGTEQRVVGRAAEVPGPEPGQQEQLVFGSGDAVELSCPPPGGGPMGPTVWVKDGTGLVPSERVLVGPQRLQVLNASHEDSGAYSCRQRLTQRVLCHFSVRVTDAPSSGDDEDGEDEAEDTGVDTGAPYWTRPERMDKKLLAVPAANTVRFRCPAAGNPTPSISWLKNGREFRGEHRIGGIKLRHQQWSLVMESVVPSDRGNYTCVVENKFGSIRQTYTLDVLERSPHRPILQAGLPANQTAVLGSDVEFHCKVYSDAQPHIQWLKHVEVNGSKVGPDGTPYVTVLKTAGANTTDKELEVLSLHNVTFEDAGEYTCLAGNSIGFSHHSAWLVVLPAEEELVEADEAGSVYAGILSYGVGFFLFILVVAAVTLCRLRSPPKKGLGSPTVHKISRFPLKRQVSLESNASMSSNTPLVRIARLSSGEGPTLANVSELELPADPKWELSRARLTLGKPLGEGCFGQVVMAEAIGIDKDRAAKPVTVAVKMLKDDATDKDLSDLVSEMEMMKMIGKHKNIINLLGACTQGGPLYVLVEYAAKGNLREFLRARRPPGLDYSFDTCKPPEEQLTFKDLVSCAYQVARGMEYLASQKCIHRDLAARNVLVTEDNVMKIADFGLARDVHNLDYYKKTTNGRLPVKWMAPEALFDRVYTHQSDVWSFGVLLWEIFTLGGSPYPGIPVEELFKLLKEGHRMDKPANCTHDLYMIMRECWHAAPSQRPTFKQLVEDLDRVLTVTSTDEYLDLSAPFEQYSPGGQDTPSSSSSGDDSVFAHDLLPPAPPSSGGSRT
EPHB1, sequence (P54762 whole entry, looked up): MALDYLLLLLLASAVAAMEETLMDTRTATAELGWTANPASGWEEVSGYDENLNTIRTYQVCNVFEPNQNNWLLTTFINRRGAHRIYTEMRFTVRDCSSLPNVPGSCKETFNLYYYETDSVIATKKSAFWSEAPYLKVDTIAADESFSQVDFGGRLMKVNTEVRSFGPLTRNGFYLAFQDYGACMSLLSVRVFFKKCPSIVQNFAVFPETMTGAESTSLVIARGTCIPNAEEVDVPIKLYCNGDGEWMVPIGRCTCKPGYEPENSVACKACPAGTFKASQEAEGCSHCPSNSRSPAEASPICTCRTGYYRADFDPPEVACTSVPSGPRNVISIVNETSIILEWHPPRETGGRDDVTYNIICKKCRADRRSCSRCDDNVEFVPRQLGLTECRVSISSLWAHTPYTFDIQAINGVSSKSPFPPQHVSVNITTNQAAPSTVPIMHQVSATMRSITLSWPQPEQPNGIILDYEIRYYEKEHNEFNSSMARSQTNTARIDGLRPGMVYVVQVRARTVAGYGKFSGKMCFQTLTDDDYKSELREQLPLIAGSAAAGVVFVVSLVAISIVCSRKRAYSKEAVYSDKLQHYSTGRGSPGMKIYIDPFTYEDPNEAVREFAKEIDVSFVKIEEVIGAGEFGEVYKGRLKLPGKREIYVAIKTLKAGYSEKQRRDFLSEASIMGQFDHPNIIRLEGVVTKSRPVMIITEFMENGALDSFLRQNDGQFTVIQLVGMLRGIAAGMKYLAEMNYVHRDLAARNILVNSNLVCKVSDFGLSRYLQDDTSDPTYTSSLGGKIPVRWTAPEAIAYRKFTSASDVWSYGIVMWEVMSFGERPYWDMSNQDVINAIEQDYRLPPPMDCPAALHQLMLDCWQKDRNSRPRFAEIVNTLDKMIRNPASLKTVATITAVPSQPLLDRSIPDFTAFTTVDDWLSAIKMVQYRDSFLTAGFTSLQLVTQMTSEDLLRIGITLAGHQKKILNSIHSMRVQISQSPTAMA
Grb2 SH2, sequence (P62993 whole entry, looked up): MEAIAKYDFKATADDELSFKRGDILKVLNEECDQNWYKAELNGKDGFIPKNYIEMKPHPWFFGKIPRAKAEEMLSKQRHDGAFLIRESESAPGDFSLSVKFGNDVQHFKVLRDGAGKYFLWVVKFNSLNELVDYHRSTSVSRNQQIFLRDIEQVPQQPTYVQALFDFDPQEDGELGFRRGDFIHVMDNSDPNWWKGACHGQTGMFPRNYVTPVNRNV
FGFR1, sequence (P11362 whole entry, looked up): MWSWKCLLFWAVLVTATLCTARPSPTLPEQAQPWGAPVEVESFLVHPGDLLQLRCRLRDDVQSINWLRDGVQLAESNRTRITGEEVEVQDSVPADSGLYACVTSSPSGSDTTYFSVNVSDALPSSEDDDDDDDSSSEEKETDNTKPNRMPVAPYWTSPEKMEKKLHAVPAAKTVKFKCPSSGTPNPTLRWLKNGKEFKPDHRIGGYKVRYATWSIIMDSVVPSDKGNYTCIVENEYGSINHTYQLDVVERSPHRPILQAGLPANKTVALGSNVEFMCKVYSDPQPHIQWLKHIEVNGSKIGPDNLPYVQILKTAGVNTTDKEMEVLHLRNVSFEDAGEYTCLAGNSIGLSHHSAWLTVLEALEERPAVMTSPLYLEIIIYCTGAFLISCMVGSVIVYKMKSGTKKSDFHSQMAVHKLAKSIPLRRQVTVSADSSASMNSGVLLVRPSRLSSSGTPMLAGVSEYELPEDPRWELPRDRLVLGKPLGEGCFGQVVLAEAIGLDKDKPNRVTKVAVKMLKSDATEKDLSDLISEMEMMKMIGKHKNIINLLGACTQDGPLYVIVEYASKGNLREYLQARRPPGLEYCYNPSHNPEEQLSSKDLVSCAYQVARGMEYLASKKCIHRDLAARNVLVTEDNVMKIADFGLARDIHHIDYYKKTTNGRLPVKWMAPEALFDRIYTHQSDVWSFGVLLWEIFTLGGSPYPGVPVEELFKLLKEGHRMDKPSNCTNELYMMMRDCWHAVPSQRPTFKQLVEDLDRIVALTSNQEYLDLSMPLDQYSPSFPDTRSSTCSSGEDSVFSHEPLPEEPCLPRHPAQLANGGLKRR
Fyn, sequence (P06241 whole entry, looked up): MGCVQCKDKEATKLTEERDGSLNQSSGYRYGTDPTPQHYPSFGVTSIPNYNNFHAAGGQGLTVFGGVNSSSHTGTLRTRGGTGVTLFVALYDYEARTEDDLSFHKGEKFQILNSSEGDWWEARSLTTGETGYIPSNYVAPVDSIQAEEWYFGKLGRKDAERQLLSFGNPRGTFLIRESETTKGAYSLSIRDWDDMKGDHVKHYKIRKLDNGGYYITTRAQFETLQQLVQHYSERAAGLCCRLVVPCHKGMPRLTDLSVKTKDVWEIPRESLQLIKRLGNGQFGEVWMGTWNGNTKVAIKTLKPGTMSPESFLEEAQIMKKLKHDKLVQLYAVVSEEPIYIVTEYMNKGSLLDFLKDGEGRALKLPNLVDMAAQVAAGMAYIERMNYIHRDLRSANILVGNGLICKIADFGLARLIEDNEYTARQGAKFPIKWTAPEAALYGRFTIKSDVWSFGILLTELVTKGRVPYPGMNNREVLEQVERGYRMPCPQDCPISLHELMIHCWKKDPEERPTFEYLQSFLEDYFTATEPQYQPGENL

| Sequence | SH2 binding enrichment (c-Src SH2) | SH2 binding enrichment (SHP2-C SH2) | SH2 binding enrichment (Grb2 SH2) | phosphorylation enrichment (c-Src) | phosphorylation enrichment (AncSZ) | phosphorylation enrichment (Fyn) | phosphorylation enrichment (FGFR3) | phosphorylation enrichment (Jak2) | phosphorylation enrichment (c-Abl (mouse)) | phosphorylation enrichment (EPHB1) | phosphorylation enrichment (Fes) | phosphorylation enrichment (FGFR1) | phosphorylation enrichment (MERTK) | phosphorylation enrichment (Fer (mouse)) | phosphorylation enrichment (EPHB2) | phosphorylation enrichment (Hck) |
| --- | --- | --- | --- | --- | --- | --- | --- | --- | --- | --- | --- | --- | --- | --- | --- | --- |
| EVTLTYATGTK [NFKB1_Y485] | 0.418 | 0.528 | 0.701 | 0.409 | 0.805 | 0.496 | 0.643 | 0.75 | 0.774 | 0.526 | 1.11 | 0.404 | 0.371 | 0.425 | 0.526 | 0.514 |
| EWLRGYLENGK [HLA-C_Y195_R194G] | 0.43 | 1.06 | 0.871 | 0.481 | 0.844 | 0.464 | 0.601 | 0.777 | 0.97 | 0.51 | 0.921 | 0.481 | 0.394 | 0.436 | 0.683 | 0.483 |
| EWQQIYTYDSG [JUP_Y20_T19I] | 0.968 | 0.734 | 0.885 | 6.89 | 1.6 | 8.85 | 5.58 | 1 | 0.75 | 1.69 | 1.18 | 6.84 | 7.85 | 4.55 | 0.971 | 6.09 |
| EWQQTYTYDSG [JUP_Y20] | 1.01 | 0.775 | 0.813 | 3.88 | 1.12 | 1.28 | 0.99 | 0.898 | 0.657 | 0.554 | 1.02 | 1.17 | 0.817 | 0.513 | 0.585 | 0.783 |
| EYLHKYKGFKI [SYNE1_Y6953_Q6951H] | 0.527 | 0.63 | 0.861 | 0.501 | 0.903 | 0.461 | 0.57 | 1.01 | 0.996 | 0.509 | 1.01 | 0.403 | 0.453 | 0.405 | 0.509 | 0.437 |
| FADIAYNFRHG [PAH_Y166_YF] | 0.516 | 0.78 | 0.878 | 0.532 | 0.67 | 0.558 | 0.512 | 0.734 | 0.578 | 0.522 | 0.713 | 0.581 | 0.428 | 0.396 | 0.514 | 0.506 |
| FADIAYNFRRG [PAH_Y166_H170R_YF] | 0.541 | 0.822 | 0.799 | 0.45 | 0.966 | 0.409 | 0.539 | 0.602 | 0.462 | 0.637 | 0.649 | 0.43 | 0.396 | 0.39 | 0.411 | 0.429 |
| FADTAYNFRHG [PAH_Y166_I164T_YF] | 0.45 | 0.562 | 0.881 | 0.415 | 0.599 | 0.369 | 0.39 | 0.45 | 0.544 | 0.363 | 0.62 | 0.342 | 0.305 | 0.317 | 0.386 | 0.379 |
| FAELVYTSFWH [ASS1_Y322_G324S] | 0.624 | 0.612 | 0.907 | 6.82 | 2.31 | 8.65 | 4.28 | 2.11 | 14 | 2.99 | 1.89 | 5.31 | 7.38 | 8.86 | 3.44 | 7.37 |
| FAKSVYWDNTL [NUP107_Y296_E298D_YF] | 0.691 | 0.694 | 0.781 | 0.76 | 1 | 0.679 | 0.688 | 1.02 | 0.656 | 0.719 | 1.04 | 0.525 | 0.725 | 0.463 | 0.772 | 0.578 |
| FASALYRQRRS [FGF11_Y162_YF] | 0.516 | 0.576 | 0.79 | 0.577 | 0.689 | 0.577 | 0.531 | 0.468 | 0.563 | 0.513 | 0.592 | 0.668 | 0.565 | 0.991 | 0.622 | 0.546 |
| FCRHNYGVVES [HLA-DRB1_Y112_YF] | 1.86 | 1.05 | 1.19 | 0.446 | 0.569 | 0.503 | 0.661 | 0.632 | 0.545 | 1.32 | 0.843 | 0.587 | 0.44 | 0.555 | 2.62 | 0.526 |
| FDNPVYQKTTE [LDLR_Y828] | 0.578 | 1.09 | 0.993 | 0.531 | 0.737 | 0.759 | 0.498 | 0.549 | 0.438 | 0.605 | 0.864 | 0.5 | 0.453 | 0.424 | 0.497 | 0.933 |
| FEGAIYRKDIG [GART_Y417_V421I] | 0.563 | 0.71 | 0.903 | 0.477 | 0.868 | 0.524 | 0.743 | 0.617 | 0.515 | 0.442 | 0.769 | 0.478 | 0.451 | 0.446 | 0.464 | 0.506 |
| FEGRSYSACTT [MMP9_Y241] | 0.573 | 0.598 | 0.818 | 0.428 | 0.926 | 0.541 | 0.709 | 0.947 | 0.856 | 0.643 | 1.13 | 0.728 | 0.492 | 0.516 | 0.616 | 0.557 |
| FEPWVYSLSYE [PRKDC_Y647_F649L] | 0.674 | 0.568 | 0.812 | 6.59 | 1.6 | 7.16 | 0.893 | 1.33 | 0.707 | 0.749 | 1.49 | 0.602 | 1.6 | 1.77 | 0.767 | 4.72 |
| FFSSEYHFVGG [CTSC_Y345_YF] | 0.756 | 1.68 | 0.99 | 2.94 | 2.52 | 2 | 10.7 | 1.95 | 1.71 | 3.21 | 0.91 | 14.2 | 3.31 | 0.526 | 3.73 | 2.44 |

| Sequence | SH2 binding enrichment (c-Src SH2) | SH2 binding enrichment (SHP2-C SH2) | SH2 binding enrichment (Grb2 SH2) | phosphorylation enrichment (c-Src) | phosphorylation enrichment (AncSZ) | phosphorylation enrichment (Fyn) | phosphorylation enrichment (FGFR3) | phosphorylation enrichment (Jak2) | phosphorylation enrichment (c-Abl (mouse)) | phosphorylation enrichment (EPHB1) | phosphorylation enrichment (Fes) | phosphorylation enrichment (FGFR1) | phosphorylation enrichment (MERTK) | phosphorylation enrichment (Fer (mouse)) | phosphorylation enrichment (EPHB2) | phosphorylation enrichment (Hck) |
| --- | --- | --- | --- | --- | --- | --- | --- | --- | --- | --- | --- | --- | --- | --- | --- | --- |
| FGSSSYGGAGG [RPA2_Y14_YF] | 0.394 | 0.58 | 0.743 | 0.43 | 0.415 | 0.45 | 0.436 | 0.544 | 0.677 | 0.431 | 0.559 | 0.437 | 0.329 | 0.334 | 0.401 | 0.374 |
| FIPFRYPKEFQ [IDS_Y234_H229Y_YF] | 0.534 | 0.613 | 0.876 | 0.565 | 0.705 | 0.469 | 0.516 | 0.548 | 0.595 | 0.316 | 0.883 | 0.465 | 0.409 | 0.323 | 0.494 | 0.469 |
| FISLIYTNFEV [GSTP1_Y109_A114V_YF] | 0.611 | 0.882 | 0.774 | 5.5 | 2.18 | 3.99 | 1.21 | 1.79 | 3.47 | 1.07 | 1.77 | 0.839 | 4.4 | 5.37 | 0.903 | 2.7 |
| FKDVTYLKEEK [UBE3A_Y127_T129K] | 0.642 | 0.465 | 0.823 | 0.523 | 0.891 | 0.514 | 0.728 | 0.986 | 0.809 | 0.466 | 1.28 | 0.481 | 0.38 | 0.49 | 0.447 | 0.442 |
| FKEDPYLVVNP [MCM6_Y810_E806K_YF] | 0.557 | 0.753 | 0.762 | 1.98 | 1.19 | 1.06 | 0.89 | 1.13 | 0.815 | 0.441 | 1.12 | 1.02 | 0.449 | 0.531 | 0.617 | 0.718 |
| FKIFLYTLNDN [FN1_Y1975_YF] | 0.428 | 0.588 | 0.741 | 0.43 | 1.3 | 0.584 | 0.717 | 1.06 | 0.877 | 0.624 | 1.35 | 0.523 | 0.366 | 0.548 | 0.791 | 0.494 |
| FLAVGYHKPHI [IDS_Y225] | 1.18 | 1.27 | 1.21 | 0.448 | 0.741 | 0.495 | 0.647 | 0.733 | 0.709 | 0.356 | 0.799 | 0.408 | 0.368 | 0.561 | 0.59 | 0.602 |
| FLAVGYHKPYI [IDS_Y225_H229Y] | 1.51 | 1.14 | 0.98 | 0.348 | 0.654 | 0.46 | 0.512 | 1.02 | 1.16 | 0.591 | 1.16 | 0.446 | 0.441 | 0.554 | 0.441 | 0.399 |
| FMRGMYFRMTD [PLA2G6_Y541_K545T_YF] | 0.914 | 1.43 | 0.941 | 0.481 | 1.09 | 0.434 | 0.663 | 1.39 | 0.715 | 0.698 | 1.2 | 0.496 | 0.438 | 0.506 | 0.563 | 0.513 |
| FQKNIYSEEPR [LMNA_Y211_L215P] | 0.578 | 0.462 | 0.809 | 1.54 | 0.773 | 1.02 | 0.582 | 0.717 | 0.477 | 0.438 | 0.871 | 0.478 | 1.73 | 0.454 | 0.443 | 0.763 |
| FRKNIYNVKST [SYNE2_Y575_YF] | 0.723 | 0.927 | 1.18 | 0.355 | 0.469 | 0.398 | 0.355 | 0.384 | 0.39 | 0.385 | 0.439 | 0.357 | 0.335 | 0.348 | 0.378 | 0.251 |
| FRSSLYLLMET [MYO5C_Y633] | 0.855 | 1.16 | 1.3 | 0.521 | 1.24 | 0.473 | 1.16 | 1.29 | 0.896 | 0.804 | 1.37 | 0.724 | 1.46 | 0.687 | 0.591 | 0.576 |
| FSAPNCCFRCG [PPP2CA_Y265_Y265C_YF] | 0.585 | 0.751 | 0.931 | 0.448 | 0.856 | 0.458 | 0.663 | 0.833 | 0.658 | 0.559 | 0.974 | 0.458 | 0.486 | 0.48 | 0.461 | 0.479 |
| FSAPNYCFRCG [PPP2CA_Y265_YF] | 0.763 | 0.702 | 1.24 | 0.343 | 0.661 | 0.349 | 0.486 | 0.511 | 0.416 | 0.397 | 0.674 | 0.474 | 0.393 | 0.415 | 0.448 | 0.374 |
| FSMGCYEISLG [HMGCL_Y198_YF] | 0.505 | 0.785 | 0.641 | 1.64 | 1.93 | 0.993 | 1.05 | 1.6 | 0.965 | 1.03 | 1.47 | 0.652 | 0.866 | 1.68 | 1.01 | 0.836 |
| FSNVLYRPRGP [TMIGD2_Y197_A202P_YF] | 0.506 | 0.794 | 0.693 | 0.463 | 0.549 | 0.438 | 0.444 | 0.959 | 0.568 | 0.429 | 0.674 | 0.367 | 0.434 | 0.397 | 0.399 | 0.479 |
